Results on 1 molecule are retold here after patent publication US20190145987A1 (UNIVERSIT LIBRE DE BRUXELLES, published 2019).

For the assay, the target named is human DPP6 protein (human, UniProt P42658 117-865, limits assumed). The experiment in a line: affinity versus the human DPP6 protein; method not stated.
Sequence of human DPP6 protein (P42658 117-865 limits assumed): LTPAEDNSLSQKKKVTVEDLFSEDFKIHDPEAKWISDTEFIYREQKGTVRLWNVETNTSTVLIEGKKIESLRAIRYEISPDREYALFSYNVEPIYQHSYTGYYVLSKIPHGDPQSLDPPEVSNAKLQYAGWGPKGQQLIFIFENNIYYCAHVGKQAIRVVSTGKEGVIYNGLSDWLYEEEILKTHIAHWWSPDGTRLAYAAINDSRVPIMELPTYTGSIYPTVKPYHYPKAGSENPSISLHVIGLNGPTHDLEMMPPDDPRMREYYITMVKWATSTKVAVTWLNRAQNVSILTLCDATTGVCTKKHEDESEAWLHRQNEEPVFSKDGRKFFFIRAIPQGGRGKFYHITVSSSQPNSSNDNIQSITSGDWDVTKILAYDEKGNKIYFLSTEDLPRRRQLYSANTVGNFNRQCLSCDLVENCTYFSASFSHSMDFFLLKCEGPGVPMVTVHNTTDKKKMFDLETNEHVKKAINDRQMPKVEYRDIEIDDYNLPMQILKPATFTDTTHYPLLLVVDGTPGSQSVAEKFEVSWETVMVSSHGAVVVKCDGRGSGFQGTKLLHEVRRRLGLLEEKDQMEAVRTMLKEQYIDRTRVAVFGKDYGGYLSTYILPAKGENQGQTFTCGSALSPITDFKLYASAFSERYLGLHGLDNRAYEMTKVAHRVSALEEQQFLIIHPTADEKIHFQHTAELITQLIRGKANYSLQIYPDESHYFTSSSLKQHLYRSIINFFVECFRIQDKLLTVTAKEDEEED

B1: nanobody 4hD29 (VHH)
VHH: QVQLQESGGGLVQPGGSLRLSCAASGFTFSSNYMTWVRQAPGKGPEWVSGINPDGSSTYYADSVKGRFTISRDNAKNTLYLQMNSLKSEDTALYKCATGAAPRIPTTLRGQGTQVTVSS
notes: also called Nb 4hD29; 4hD29 Nb
As to B1, the Kd amounted to 1.2 nM.

A word on the Kd: it is a measure of binding affinity in units of concentration. Read a low Kd as tighter binding.
